Reference: patent publication US20140087995A1 (published 2014)
Numbered stars: 1 amine (or outer) side, 2 acyl side, 3 side chain; on linkers, the order of the positions; unused ones are H or OH. Bridge positions count the residues as written; N and C are the ends. Side chains are listed from the residue outwards. Ends that are not written are not given here. * marks the point of attachment. C20 diacid = O=C(O)CCCCCCCCCCCCCCCCCCC(=O)*; γGlu = O=C(O)[C@H](CCC(=O)[*:2])N[*:1]

T1: human amylin receptor (human, UniProt P30988 25-474; O60896 24-148, limits assumed)
T1 construct: whole, on cells; Calcitonin receptor plus RAMP-3 gives the amylin 3(a) receptor; membranes of Amylin 3(a)/CRE-luc cells were used; also called hAmylin-R; hAmylinR
T1 sequence (looked up) 1: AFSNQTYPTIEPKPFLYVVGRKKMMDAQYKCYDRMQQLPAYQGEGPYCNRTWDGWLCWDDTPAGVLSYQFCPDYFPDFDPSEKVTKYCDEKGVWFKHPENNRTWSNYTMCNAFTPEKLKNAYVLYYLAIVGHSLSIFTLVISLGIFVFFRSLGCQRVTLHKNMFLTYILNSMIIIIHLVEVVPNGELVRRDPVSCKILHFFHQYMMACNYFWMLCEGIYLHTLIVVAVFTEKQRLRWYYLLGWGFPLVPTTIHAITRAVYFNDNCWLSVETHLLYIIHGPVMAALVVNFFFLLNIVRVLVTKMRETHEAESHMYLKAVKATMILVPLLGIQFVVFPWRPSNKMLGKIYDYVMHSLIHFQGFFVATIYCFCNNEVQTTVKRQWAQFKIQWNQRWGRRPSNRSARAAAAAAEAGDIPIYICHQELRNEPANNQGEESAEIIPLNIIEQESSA
T1 sequence (looked up) 2: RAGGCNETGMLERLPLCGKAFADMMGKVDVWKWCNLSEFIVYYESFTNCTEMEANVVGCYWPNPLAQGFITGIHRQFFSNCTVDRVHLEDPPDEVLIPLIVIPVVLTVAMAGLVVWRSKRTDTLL


Target: T1, human amylin receptor
Test: SPA competition binding, displacement of 125I-rat amylin from membranes with human amylin 3(a) receptor (Assay V)
Procedure, shortened: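 Cell membranes were prepared by homogenisation in Na-HEPES/EDTA buffer, pH 7.4, and stored at −80° C. They were then coupled to SPA beads at 35 ng/μL final and exposed to compounds in assay buffer containing CaCl2, MgCl₂, OA and Tween20. After 120 min at 25° C, plates were counted and IC₅₀ derived.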

IC50 [nM]	Binder
0.082	K([γGlu-C20 diacid])CNTATCATQRLAHFLRHSSPNFGAIPSSTPVGPNTY-NH2 (disulfide 2-7; N-terminus assumed; SMILES CC[C@H](C)[C@H](NC(=O)[C@H](C)NC(=O)CNC(=O)[C@H](Cc1ccccc1)NC(=O)[C@H](CC(N)=O)NC(=O)[C@@H]1CCCN1C(=O)[C@H](CO)NC(=O)[C@H](CO)NC(=O)[C@H](Cc1c[nH]cn1)NC(=O)[C@H](CCCNC(=N)N)NC(=O)[C@H](CC(C)C)NC(=O)[C@H](Cc1ccccc1)NC(=O)[C@H](Cc1c[nH]cn1)NC(=O)[C@H](C)NC(=O)[C@H](CC(C)C)NC(=O)[C@H](CCCNC(=N)N)NC(=O)[C@H](CCC(N)=O)NC(=O)[C@@H](NC(=O)[C@H](C)NC(=O)[C@@H]1CSSC[C@H](NC(=O)[C@@H](N)CCCCNC(=O)CC[C@H](NC(=O)CCCCCCCCCCCCCCCCCCC(=O)O)C(=O)O)C(=O)N[C@@H](CC(N)=O)C(=O)N[C@@H]([C@@H](C)O)C(=O)N[C@@H](C)C(=O)N[C@@H]([C@@H](C)O)C(=O)N1)[C@@H](C)O)C(=O)N1CCC[C@H]1C(=O)N[C@@H](CO)C(=O)N[C@@H](CO)C(=O)N[C@H](C(=O)N1CCC[C@H]1C(=O)N[C@H](C(=O)NCC(=O)N1CCC[C@H]1C(=O)N[C@@H](CC(N)=O)C(=O)N[C@H](C(=O)N[C@@H](Cc1ccc(O)cc1)C(N)=O)[C@@H](C)O)C(C)C)[C@@H](C)O, also called 14H, 17R, 21P, 27P, 31P, 34P)
0.098	K([γGlu-C20 diacid])CNTATCATQRLAHFLRHSSPNFGAIPSSTPVGSNTY-NH2 (disulfide 2-7; N-terminus assumed; SMILES CC[C@H](C)[C@H](NC(=O)[C@H](C)NC(=O)CNC(=O)[C@H](Cc1ccccc1)NC(=O)[C@H](CC(N)=O)NC(=O)[C@@H]1CCCN1C(=O)[C@H](CO)NC(=O)[C@H](CO)NC(=O)[C@H](Cc1c[nH]cn1)NC(=O)[C@H](CCCNC(=N)N)NC(=O)[C@H](CC(C)C)NC(=O)[C@H](Cc1ccccc1)NC(=O)[C@H](Cc1c[nH]cn1)NC(=O)[C@H](C)NC(=O)[C@H](CC(C)C)NC(=O)[C@H](CCCNC(=N)N)NC(=O)[C@H](CCC(N)=O)NC(=O)[C@@H](NC(=O)[C@H](C)NC(=O)[C@@H]1CSSC[C@H](NC(=O)[C@@H](N)CCCCNC(=O)CC[C@H](NC(=O)CCCCCCCCCCCCCCCCCCC(=O)O)C(=O)O)C(=O)N[C@@H](CC(N)=O)C(=O)N[C@@H]([C@@H](C)O)C(=O)N[C@@H](C)C(=O)N[C@@H]([C@@H](C)O)C(=O)N1)[C@@H](C)O)C(=O)N1CCC[C@H]1C(=O)N[C@@H](CO)C(=O)N[C@@H](CO)C(=O)N[C@H](C(=O)N1CCC[C@H]1C(=O)N[C@H](C(=O)NCC(=O)N[C@@H](CO)C(=O)N[C@@H](CC(N)=O)C(=O)N[C@H](C(=O)N[C@@H](Cc1ccc(O)cc1)C(N)=O)[C@@H](C)O)C(C)C)[C@@H](C)O, also called 14H, 17R, 21P, 27P, 31P)
0.169	K([γGlu-C20 diacid])CNTATCATQRLAHFLRHSSPNFGAIPSSTNVGSNTY-NH2 (disulfide 2-7; N-terminus assumed; SMILES CC[C@H](C)[C@H](NC(=O)[C@H](C)NC(=O)CNC(=O)[C@H](Cc1ccccc1)NC(=O)[C@H](CC(N)=O)NC(=O)[C@@H]1CCCN1C(=O)[C@H](CO)NC(=O)[C@H](CO)NC(=O)[C@H](Cc1c[nH]cn1)NC(=O)[C@H](CCCNC(=N)N)NC(=O)[C@H](CC(C)C)NC(=O)[C@H](Cc1ccccc1)NC(=O)[C@H](Cc1c[nH]cn1)NC(=O)[C@H](C)NC(=O)[C@H](CC(C)C)NC(=O)[C@H](CCCNC(=N)N)NC(=O)[C@H](CCC(N)=O)NC(=O)[C@@H](NC(=O)[C@H](C)NC(=O)[C@@H]1CSSC[C@H](NC(=O)[C@@H](N)CCCCNC(=O)CC[C@H](NC(=O)CCCCCCCCCCCCCCCCCCC(=O)O)C(=O)O)C(=O)N[C@@H](CC(N)=O)C(=O)N[C@@H]([C@@H](C)O)C(=O)N[C@@H](C)C(=O)N[C@@H]([C@@H](C)O)C(=O)N1)[C@@H](C)O)C(=O)N1CCC[C@H]1C(=O)N[C@@H](CO)C(=O)N[C@@H](CO)C(=O)N[C@H](C(=O)N[C@@H](CC(N)=O)C(=O)N[C@H](C(=O)NCC(=O)N[C@@H](CO)C(=O)N[C@@H](CC(N)=O)C(=O)N[C@H](C(=O)N[C@@H](Cc1ccc(O)cc1)C(N)=O)[C@@H](C)O)C(C)C)[C@@H](C)O, also called 14H, 17R, 21P, 27P) [N^ε1-[(4S)-4-carboxy-4-(19-carboxynonadecanoylamino)butanoyl]-[His14,Arg17,Pro21,Pro27]-h-amylin]
0.131	K([γGlu-C20 diacid])CNTATCATQRLAHFLRHSSPNFGAIPSSTNVGPNTP-NH2 (disulfide 2-7; N-terminus assumed; SMILES CC[C@H](C)[C@H](NC(=O)[C@H](C)NC(=O)CNC(=O)[C@H](Cc1ccccc1)NC(=O)[C@H](CC(N)=O)NC(=O)[C@@H]1CCCN1C(=O)[C@H](CO)NC(=O)[C@H](CO)NC(=O)[C@H](Cc1c[nH]cn1)NC(=O)[C@H](CCCNC(=N)N)NC(=O)[C@H](CC(C)C)NC(=O)[C@H](Cc1ccccc1)NC(=O)[C@H](Cc1c[nH]cn1)NC(=O)[C@H](C)NC(=O)[C@H](CC(C)C)NC(=O)[C@H](CCCNC(=N)N)NC(=O)[C@H](CCC(N)=O)NC(=O)[C@@H](NC(=O)[C@H](C)NC(=O)[C@@H]1CSSC[C@H](NC(=O)[C@@H](N)CCCCNC(=O)CC[C@H](NC(=O)CCCCCCCCCCCCCCCCCCC(=O)O)C(=O)O)C(=O)N[C@@H](CC(N)=O)C(=O)N[C@@H]([C@@H](C)O)C(=O)N[C@@H](C)C(=O)N[C@@H]([C@@H](C)O)C(=O)N1)[C@@H](C)O)C(=O)N1CCC[C@H]1C(=O)N[C@@H](CO)C(=O)N[C@@H](CO)C(=O)N[C@H](C(=O)N[C@@H](CC(N)=O)C(=O)N[C@H](C(=O)NCC(=O)N1CCC[C@H]1C(=O)N[C@@H](CC(N)=O)C(=O)N[C@H](C(=O)N1CCC[C@H]1C(N)=O)[C@@H](C)O)C(C)C)[C@@H](C)O, also called 14H, 17R, 21P, 27P, 34P, 37P)
0.697	K([γGlu-γGlu-C20 diacid])CNTATCATQRLADFLRHSSPNFGAIPSSTNVGSRTY-NH2 (disulfide 2-7; N-terminus assumed; SMILES CC[C@H](C)[C@H](NC(=O)[C@H](C)NC(=O)CNC(=O)[C@H](Cc1ccccc1)NC(=O)[C@H](CC(N)=O)NC(=O)[C@@H]1CCCN1C(=O)[C@H](CO)NC(=O)[C@H](CO)NC(=O)[C@H](Cc1c[nH]cn1)NC(=O)[C@H](CCCNC(=N)N)NC(=O)[C@H](CC(C)C)NC(=O)[C@H](Cc1ccccc1)NC(=O)[C@H](CC(=O)O)NC(=O)[C@H](C)NC(=O)[C@H](CC(C)C)NC(=O)[C@H](CCCNC(=N)N)NC(=O)[C@H](CCC(N)=O)NC(=O)[C@@H](NC(=O)[C@H](C)NC(=O)[C@@H]1CSSC[C@H](NC(=O)[C@@H](N)CCCCNC(=O)CC[C@H](NC(=O)CC[C@H](NC(=O)CCCCCCCCCCCCCCCCCCC(=O)O)C(=O)O)C(=O)O)C(=O)N[C@@H](CC(N)=O)C(=O)N[C@@H]([C@@H](C)O)C(=O)N[C@@H](C)C(=O)N[C@@H]([C@@H](C)O)C(=O)N1)[C@@H](C)O)C(=O)N1CCC[C@H]1C(=O)N[C@@H](CO)C(=O)N[C@@H](CO)C(=O)N[C@H](C(=O)N[C@@H](CC(N)=O)C(=O)N[C@H](C(=O)NCC(=O)N[C@@H](CO)C(=O)N[C@@H](CCCNC(=N)N)C(=O)N[C@H](C(=O)N[C@@H](Cc1ccc(O)cc1)C(N)=O)[C@@H](C)O)C(C)C)[C@@H](C)O, also called 14D, 17R, 21P, 27P, 35R)
0.411	K([γGlu-γGlu-C20 diacid])CNTATCATQRLADFLRHSSPNFGAIPSSTNVGSDTY-NH2 (disulfide 2-7; N-terminus assumed; SMILES CC[C@H](C)[C@H](NC(=O)[C@H](C)NC(=O)CNC(=O)[C@H](Cc1ccccc1)NC(=O)[C@H](CC(N)=O)NC(=O)[C@@H]1CCCN1C(=O)[C@H](CO)NC(=O)[C@H](CO)NC(=O)[C@H](Cc1c[nH]cn1)NC(=O)[C@H](CCCNC(=N)N)NC(=O)[C@H](CC(C)C)NC(=O)[C@H](Cc1ccccc1)NC(=O)[C@H](CC(=O)O)NC(=O)[C@H](C)NC(=O)[C@H](CC(C)C)NC(=O)[C@H](CCCNC(=N)N)NC(=O)[C@H](CCC(N)=O)NC(=O)[C@@H](NC(=O)[C@H](C)NC(=O)[C@@H]1CSSC[C@H](NC(=O)[C@@H](N)CCCCNC(=O)CC[C@H](NC(=O)CC[C@H](NC(=O)CCCCCCCCCCCCCCCCCCC(=O)O)C(=O)O)C(=O)O)C(=O)N[C@@H](CC(N)=O)C(=O)N[C@@H]([C@@H](C)O)C(=O)N[C@@H](C)C(=O)N[C@@H]([C@@H](C)O)C(=O)N1)[C@@H](C)O)C(=O)N1CCC[C@H]1C(=O)N[C@@H](CO)C(=O)N[C@@H](CO)C(=O)N[C@H](C(=O)N[C@@H](CC(N)=O)C(=O)N[C@H](C(=O)NCC(=O)N[C@@H](CO)C(=O)N[C@@H](CC(=O)O)C(=O)N[C@H](C(=O)N[C@@H](Cc1ccc(O)cc1)C(N)=O)[C@@H](C)O)C(C)C)[C@@H](C)O, also called 14D, 17R, 21P, 27P, 35D)
